The text below walks through data of patent publication US20230357348A1 (AstraZeneca / MedImmune, published 2023).

Starred links: 1 amine or outer side, 2 acyl side, 3 side chain; linkers in the order of their positions; H or OH if unused. Non-standard residues stand in square brackets, D forms with d. Groups on a side chain read outwards from the residue. No end group written: not given here. *: point of attachment. C20 diacid = O=C(O)CCCCCCCCCCCCCCCCCCC(=O)*; C18 diacid = O=C(O)CCCCCCCCCCCCCCCCC(=O)*; γGlu = O=C(O)[C@H](CCC(=O)[*:2])N[*:1]; αMeF = C[C@](N)(Cc1ccccc1)C(=O)O; AEEA = NCCOCCOCC(=O)O; Aib = CC(C)(N)C(=O)O

Experiment [1] addresses human GLP-1 receptor (hGLP-1R) (human, UniProt P43220 24-463). As to the kind of experiment: cell-based or functional assay.
For experiment [2], the target named is human glucagon receptor (hGCGR) (human, UniProt P47871 26-477). The experiment in a line: cell-based or functional assay.
Chain of human glucagon receptor (hGCGR) (P47871 26-477): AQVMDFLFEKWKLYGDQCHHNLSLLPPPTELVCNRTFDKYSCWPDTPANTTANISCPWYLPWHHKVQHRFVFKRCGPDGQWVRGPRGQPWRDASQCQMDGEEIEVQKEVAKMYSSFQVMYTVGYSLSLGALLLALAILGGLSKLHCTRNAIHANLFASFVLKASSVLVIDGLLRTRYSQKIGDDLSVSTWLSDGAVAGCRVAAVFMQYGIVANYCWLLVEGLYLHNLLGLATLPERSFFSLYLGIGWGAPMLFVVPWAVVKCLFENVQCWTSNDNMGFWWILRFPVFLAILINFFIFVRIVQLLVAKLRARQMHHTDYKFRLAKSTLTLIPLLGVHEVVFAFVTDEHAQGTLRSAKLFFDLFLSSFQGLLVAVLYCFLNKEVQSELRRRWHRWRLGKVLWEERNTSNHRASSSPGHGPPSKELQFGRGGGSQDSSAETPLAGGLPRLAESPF

B1: Peptide 462 (peptide)
peptide: H[Aib]QGTFTSDVSK[αMeF]LDTK([AEEA-AEEA-γGlu-C18 diacid])RARDFVQWLLEAG-OH
modifications: N-terminus assumed
SMILES: CC(C)C[C@H](NC(=O)[C@H](CC(C)C)NC(=O)[C@H](Cc1c[nH]c2ccccc12)NC(=O)[C@H](CCC(N)=O)NC(=O)[C@@H](NC(=O)[C@H](Cc1ccccc1)NC(=O)[C@H](CC(=O)O)NC(=O)[C@H](CCCNC(=N)N)NC(=O)[C@H](C)NC(=O)[C@H](CCCNC(=N)N)NC(=O)[C@H](CCCCNC(=O)COCCOCCNC(=O)COCCOCCNC(=O)CC[C@H](NC(=O)CCCCCCCCCCCCCCCCC(=O)O)C(=O)O)NC(=O)[C@@H](NC(=O)[C@H](CC(=O)O)NC(=O)[C@H](CC(C)C)NC(=O)[C@](C)(Cc1ccccc1)NC(=O)[C@H](CCCCN)NC(=O)[C@H](CO)NC(=O)[C@@H](NC(=O)[C@H](CC(=O)O)NC(=O)[C@H](CO)NC(=O)[C@@H](NC(=O)[C@H](Cc1ccccc1)NC(=O)[C@@H](NC(=O)CNC(=O)[C@H](CCC(N)=O)NC(=O)C(C)(C)NC(=O)[C@@H](N)Cc1c[nH]cn1)[C@@H](C)O)[C@@H](C)O)C(C)C)[C@@H](C)O)C(C)C)C(=O)N[C@@H](CCC(=O)O)C(=O)N[C@@H](C)C(=O)NCC(=O)O
As for B1, in experiment [1], the “hGLP-1R EC50 (pM)” value came out at 39.5 pM. The “hGluc-R EC50 (pM)” value in experiment [2] amounted to 89.2 pM.

For H[Aib]QGTFTSDVSK[αMeF]LDKK([AEEA-AEEA-γGlu-C20 diacid])RAQDFVRWLLAE-NH2 [Peptide 460], in experiment [1], the “hGLP-1R EC50 (pM)” value is 117 pM. Moreover, in experiment [2], the “hGluc-R EC50 (pM)” value came out at 66.5 pM.

On to H[Aib]QGTFTSDVSK[αMeF]LDKK([AEEA-AEEA-γGlu-C18 diacid])RAQDFVRWLLA (not fully specified (C-terminus)) [Peptide 459], for which the “hGLP-1R EC50 (pM)” value in experiment [1] is 32.7 pM. Besides, the “hGluc-R EC50 (pM)” value in experiment [2] was found to be 36.9 pM.

B2: Peptide 456 (peptide)
peptide: H[Aib]QGTFTSDVSK[αMeF]LDRK([AEEA-AEEA-γGlu-C20 diacid])RAQDFVRWLL[Aib]E-NH2
modifications: N-terminus assumed
SMILES: CC(C)C[C@H](NC(=O)[C@H](Cc1c[nH]c2ccccc12)NC(=O)[C@H](CCCNC(=N)N)NC(=O)[C@@H](NC(=O)[C@H](Cc1ccccc1)NC(=O)[C@H](CC(=O)O)NC(=O)[C@H](CCC(N)=O)NC(=O)[C@H](C)NC(=O)[C@H](CCCNC(=N)N)NC(=O)[C@H](CCCCNC(=O)COCCOCCNC(=O)COCCOCCNC(=O)CC[C@H](NC(=O)CCCCCCCCCCCCCCCCCCC(=O)O)C(=O)O)NC(=O)[C@H](CCCNC(=N)N)NC(=O)[C@H](CC(=O)O)NC(=O)[C@H](CC(C)C)NC(=O)[C@](C)(Cc1ccccc1)NC(=O)[C@H](CCCCN)NC(=O)[C@H](CO)NC(=O)[C@@H](NC(=O)[C@H](CC(=O)O)NC(=O)[C@H](CO)NC(=O)[C@@H](NC(=O)[C@H](Cc1ccccc1)NC(=O)[C@@H](NC(=O)CNC(=O)[C@H](CCC(N)=O)NC(=O)C(C)(C)NC(=O)[C@@H](N)Cc1c[nH]cn1)[C@@H](C)O)[C@@H](C)O)C(C)C)C(C)C)C(=O)N[C@@H](CC(C)C)C(=O)NC(C)(C)C(=O)N[C@@H](CCC(=O)O)C(N)=O
As for B2, the “hGLP-1R EC50 (pM)” value in experiment [1] came to 133 pM. The “hGluc-R EC50 (pM)” value in experiment [2] worked out at 80.3 pM.
